Where two headings read alike, the source gives them in different places.
How the values were obtained:
[1] = target: T1, recombinant human Trop-2-his protein (ACCESSION NO.: NP_002344.2, AA 1-274) (human, UniProt P09758 27-274); test: ELISA, coated Trop-2-his 0.2 µg/ml
T1 construct: range 27-274; also called recombinant human Trop-2 protein; recombinant human Trop-2 extracellular domain; not shown: his tag
T1 sequence (looked up): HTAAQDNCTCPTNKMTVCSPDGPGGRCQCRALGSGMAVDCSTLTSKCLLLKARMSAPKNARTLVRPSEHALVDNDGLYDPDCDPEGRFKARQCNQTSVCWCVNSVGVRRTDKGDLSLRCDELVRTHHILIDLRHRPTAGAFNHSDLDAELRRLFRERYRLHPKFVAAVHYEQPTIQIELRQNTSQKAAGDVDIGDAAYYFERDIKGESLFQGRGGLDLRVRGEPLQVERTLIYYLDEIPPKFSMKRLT
Method: Plates were coated with recombinant human Trop-2-his protein (ACCESSION NO.: NP_002344.2, AA 1-274) at a concentration of 0.2 μg/ml overnight at 4° C. and then blocked with 5% BSA for 60 min in a constant temperature incubator at 37° C. Chimeric antibodies ch3-11, ch4-3, ch17-1, ch11-4, and ch23-12 and control antibody Sacituzumab (serial dilutions of 8 concentrations in total obtained through 3-fold serially diluting a solution with an initial concentration of 2 μg/ml) were added into the plates which were then incubated in a constant temperature incubator at 37° C. for 60 min. The plates were washed with PBST 4 times, and 1:5000 dilution of HRP-anti-human Fc (Cat.: 109-035-098, Jackson ImmunoResearch) was added into the plates for reaction for 45 min. TMB (Cat.: ME142, GalaxyBio, Beijing) substrate was added for color development for 15 min, and then 2M HCl was added to stop reaction. Absorbances at 450 nm and at 630 nm (as reference wavelength) were read, and A450 nm-630 nm values of the wells in the plates were recorded.

[2] = target: T1, recombinant human Trop-2-his protein …; test: BLI, antibody on AHC sensor, Trop-2-his 60 nM
Method: 5-6 days after cell transfection, culture supernatants were purified through ProA affinity chromatography column to obtain different humanized antibodies. Affinities of the obtained antibodies were determined by an assay including capturing Fc fragments of the antibodies with anti-human IgG Fc capture (AHC) biosensors using Octet QKe system instrument from Fortebio. For the assay, each of the humanized antibodies and control antibody Sacituzumab was diluted to 4 μg/ml in PBS, and was allowed to flow through the surface of an AHC biosensor (Cat.: 18-0015, PALL) for 120 s. Recombinant human Trop-2-his protein (ACCESSION NO.: NP_002344.2, AA 1-274) was used as a mobile phase, and its concentration was 60 nM. The binding time was 100 s and the dissociation time was 300 s. When the assay was finished, data from which the response values of blank control had been deducted were fitted to a 1:1 Langmuir binding model using software, and then kinetic constants for antigen-antibody binding were calculated.
Affinities of the antibodies obtained from the combinations of mutants of murine antibody 11-4, chimeric antibody ch11-4 and control antibody Sacituzumab to recombinant human Trop-2-his protein were determined by ForteBio (Table 11).

[3] = target: T1, recombinant human Trop-2-his protein …; test: BLI, antibody on AHC sensor, Trop-2-his 60 nM; remark: listed apart in the source
Summary of the method: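 Humanized antibodies at 4 μg/ml in PBS captured via Fc on anti-human IgG Fc (AHC) biosensors for 120 s; 60 nM Trop-2-his (AA 1-274) as analyte, 100 s association, 300 s dissociation. Blank-subtracted responses fitted to 1:1 Langmuir model for kinetic constants.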

B1: Sacituzumab (antibody, human IgG1, kappa, V domains shown)
VH: QVQLQQSGSELKKPGASVKVSCKASGYTFTNYGMNWVKQAPGQGLKWMGWINTYTGEPTYTDDFKGRFAFSLDTSVSTAYLQISSLKADDTAVYFCARGGFGSSYWYFDVWGQGSLVTVSS
VL: DIQLTQSPSSLSASVGDRVSITCKASQDVSIAVAWYQQKPGKAPKLLIYSASYRYTGVPDRFSGSGSGTDFTLTISSLQPEDFAVYYCQQHYITPLTFGAGTKVEIKR
notes: expressed in HEK293; also called control antibody Sacituzumab; Saituzumab
- EC50 [1]: 0.271 nM
- Kd [2]: 0.784 nM
- Kd [3]: 0.723 nM
